The values that follow come from US9314499.

This data set has as its target T1, Histidine-tagged recombinant human Annexin A2.
T1 chain: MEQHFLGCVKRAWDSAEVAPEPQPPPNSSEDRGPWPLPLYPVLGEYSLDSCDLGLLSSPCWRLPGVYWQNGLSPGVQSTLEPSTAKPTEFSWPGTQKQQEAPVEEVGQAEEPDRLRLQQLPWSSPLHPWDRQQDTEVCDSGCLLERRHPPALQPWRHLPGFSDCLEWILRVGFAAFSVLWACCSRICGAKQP

B1: tissue plasminogen activator (protein)
chain: SYQVICRDEKTQMIYQQHQSWLRPVLRSNRVEYCWCNSGRAQCHSVPVKSCSEPRCFNGGTCQQALYFSDFVCQCPEGFAGKCCEIDTRATCYEDQGISYRGTWSTAESGAECTNWNSSALAQKPYSGRRPDAIRLGLGNHNYCRNPDRDSKPWCYVFKAGKYSSEFCSTPACSEGNSDCYFGNGSAYRGTHSLTESGASCLPWNSMILIGKVYTAQNPSAQALGLGKHNYCRNPDGDAKPWCHVLKNRRLTWEYCDVPSCSTCGLRQYSQPQFRIKGGLFADIASHPWQAAIFAKHRRSPGERFLCGGILISSCWILSAAHCFQERFPPHHLTVILGRTYRVVPGEEEQKFEVEKYIVHKEFDDDTYDNDIALLQLKSDSSRCAQESSVVRTVCLPPADLQLPDWTECELSGYGKHEALSPFYSERLKEAHVRLYPSSRCTSQHLLNRTVTDNMLCAGDTRSGGPQANLHDACQGDSGGPLVCLNDGRMTLVGIISWGLGCGQKDVPGVYTKVTNYLDWIRDNMRP
On to B1, for which the “tPA-converted plasmin generation (in vitro plasmin activity assay, fluorogenic substrate D-Val-Leu-Lys-AMC)” value is “a combination of rA2 (5 µg/ml) and tPA (2.5 µg/ml) significantly amplified tPA-converted plasmin generation”.
